Earlier results on one substance are cited in PMC7768499.

Usually Kd stands for a measure of binding affinity in units of concentration.

Among the targets are IgA2 (Homo sapiens) (UniProt P01877); IgA1 (Homo sapiens) (UniProt P01876); IgA (Homo sapiens) (UniProt P01876).

Chain of FcαRI (P24071 22-287): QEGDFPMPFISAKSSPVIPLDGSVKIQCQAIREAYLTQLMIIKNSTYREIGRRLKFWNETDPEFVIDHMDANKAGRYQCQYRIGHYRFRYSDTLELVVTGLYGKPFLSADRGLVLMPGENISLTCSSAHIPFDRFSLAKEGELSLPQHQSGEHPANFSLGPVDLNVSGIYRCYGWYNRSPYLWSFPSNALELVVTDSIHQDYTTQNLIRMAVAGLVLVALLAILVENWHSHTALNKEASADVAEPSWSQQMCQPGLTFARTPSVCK
Chain of IgA (Homo sapiens) (P01876 whole entry): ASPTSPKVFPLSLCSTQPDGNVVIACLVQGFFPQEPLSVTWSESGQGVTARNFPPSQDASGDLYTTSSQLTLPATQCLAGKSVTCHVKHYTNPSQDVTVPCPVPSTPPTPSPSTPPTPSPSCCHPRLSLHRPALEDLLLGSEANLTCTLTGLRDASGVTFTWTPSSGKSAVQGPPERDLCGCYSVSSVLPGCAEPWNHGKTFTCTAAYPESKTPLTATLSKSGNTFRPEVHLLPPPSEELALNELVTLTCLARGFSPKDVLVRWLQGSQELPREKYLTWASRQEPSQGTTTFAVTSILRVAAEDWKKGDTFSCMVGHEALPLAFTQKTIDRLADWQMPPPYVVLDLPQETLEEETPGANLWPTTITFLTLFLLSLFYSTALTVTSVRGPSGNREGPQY
Chain of IgA1 (Homo sapiens) (P01876 whole entry): as above
Chain of IgA2 (Homo sapiens) (P01877 whole entry): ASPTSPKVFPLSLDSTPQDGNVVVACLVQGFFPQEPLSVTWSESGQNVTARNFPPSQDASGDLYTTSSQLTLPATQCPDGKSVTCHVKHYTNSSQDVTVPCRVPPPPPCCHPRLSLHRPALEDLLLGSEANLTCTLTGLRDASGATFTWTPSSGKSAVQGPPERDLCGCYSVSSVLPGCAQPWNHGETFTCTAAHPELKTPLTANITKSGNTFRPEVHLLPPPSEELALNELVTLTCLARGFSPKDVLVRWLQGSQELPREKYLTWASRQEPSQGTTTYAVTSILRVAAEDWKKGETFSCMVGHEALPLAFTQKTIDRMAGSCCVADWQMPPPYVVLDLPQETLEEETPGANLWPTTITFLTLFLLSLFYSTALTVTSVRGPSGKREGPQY

Turning to FcαRI (from UniProt P24071), the Kd with IgA2 (Homo sapiens) is 20 nM; in the data set with IgA1 (Homo sapiens) it was 155 nM; with IgA (Homo sapiens), 20 nM.
